Results taken from patent US10654918B2, “Inflammatory disease diagnosis and methods of treatment using down-regulators of lipopolysaccharide-responsive beige-like anchor” (University of South Florida, priority 2013, dated 2020).

How the values were obtained:
Type in all cases: cell-based, human
LRBA = experiment: Knockdown of LRBA in Raji B cell lines stably transfected with LRBA shRNA; conditions: three Raji B cell lines stably transfected
Method: Three Raji B cell lines stablely transfected with LRBA shRNA that knockdown LRBA over 90% were generated, along with […] mouse cell lines stably transfected with a LRBA DNM.
LRBA was tested for its effect on cell growth. For the “loss of function” strategy, EBV immotalized LRBA-deficient B cell lines were generated from LRBA deficient patients, and dominant negative LRBA mutants (DNM) and knockout mouse models. The LRBA sequence targeted by the shRNA used was SEQ ID No. 15;

Raji B cells = experiment: Cytokines of Raji and Raji-9 cells treated with LPS (ELISA, CBA)
Method: FIG. 21 are graphs showing knockdown of LRBA increases the TNFα levels in Raji B (Burkitt's lymphoma) cells. Raji B cells and Raji-9 (stably transfected with shRNA plasmid against LRBA) B cells were treated with LPS (1 μg/ml). The TNFa concentrations were measured by Human TNFα DuoSet ELISA kit (R&D) following the manufacture's instruction. A. Culture supernatant; B. Cell lysate. #=p<0.07, *=p<0.05, **=p<0.005.
FIGS. 48(A)-(I). Knockdown of LRBA influences the levels of cytokines. A. Raji cells (LRBA WT or KD) were seeded in a 24 well plate wells and stimulated with LPS for 15 min (1), 30 min (2) and 1 hr (3) with 0.26 million cells in each well or for 2 h (4), 4 h (5) and 24 h (6) with 0.2 million cells in each well, 0.2 million of cells were plated in each well. ELISA and CBA assays of TNFα and IL-10. Cells were treated as in A. 0.2×10^6 cells, timepoint. 500 uL total volume medium. Duoset ELISA human TNF-a kit protocol was followed for cell culture supernatant. Blues: Raji (♦); Red: Raji9 (▪). Data are representative of 2 to 5 separate experiments.
Cell culture supernatants were directly used to detect human Th1 and Th2 cytokines (IL-2, IL-4, IL-5, IL-6, IL-10, TNFα and IFN-γ) using the human Th1/Th2 cytokine bead-array kit (BD Biosciences, San Jose, Calif.) according to the manufacturer's instructions. The TNF[…] concentrations were also measured by Human TNF[…] DuoSet ELISA kit (R&D, Catalog #DY210).

NF-κB = NF-κB luciferase reporter and phospho-NFκB flow cytometry in Raji cells with LRBA knockdown
Source text: FIG. 45A-D. Knockdown of LRBA deregulates NFκB. (A) Knockdown of LRBA increases NFκB luciferase activity. An NFκB luciferase reporter was used to measure the NFκB transcription activity. The data are shown as scatter with bar graph of mean with standard error of mean (SEM). (B) Knockdown of LRBA increases phospho-NFκB. The Phosflow kit including Cytofix Fixation Buffer, Phosflow Perm Buffer III and Stain Buffer (BD) and phospho-antibodies, NFκB p65 (pS529) PE-Cy7 were used for the intracellular staining following the company's instruction. For each samples, 50,000 cells were recorded for the FACS assay. (C) A549 cells were stably transfected with LRBA shRNA knockdown plasmid and several clones were picked up. […]
FIGS. 46(A) and (B). […] NFκB luciferase activity was measured at each time point for both cell lines as in A. RLU: Relative Light Units. […]
NF-κB is the central regulator of the immune system and plays a pivotal role in inflammation and immune responses. […] Raji cells were stimulated with LPS for different times from zero to several hours, and the NF-κB activity was measured by NF-κB luciferase reporter. […]
Ready-To-Glow™ NF-κB Secreted Luciferase Reporter System (Clontech) and Firefly Luciferase Assay Kit (Biotium, Calif., USA) were used following the manufacture's instruction.

B1: LRBA shRNA: shRNA plasmid against LRBA; targeted LRBA sequence SEQ ID No. 15 GGGATATTGTAGAAACTGTCTTT (nucleic acid)
sense: GGGATATTGTAGAAACTGTCTTTTTCAAGAGAAAAGACAGTTTCTACAATATCCCTTTTTT
antisense: CCCTATAACATCTTTGACAGAAAAAGTTCTCTTTTCTGTCAAAGATGTTATAGGGAAAAAA
- knockdown of LRBA (LRBA): over 90%
- TNFα levels in cell culture supernatants and cell lysates (ELISA) (Raji B cells; LPS stimulation for 15 min to 24 h, vs untransfected Raji B cells): significantly increased
- secreted levels of IL-10 (CBA) (Raji B cells; Raji cells, LPS): significantly increased
- secreted levels of TNFα (CBA) (Raji B cells; Raji cells, LPS): significantly increased
- phospho-NFκB (pS529), flow cytometry (NF-κB; Raji cells): increases
- average levels of the NF-κB activity (luciferase reporter) (NF-κB; Raji cells stimulated with LPS, zero to several hours): higher
